Reference: patent US11180770B2, “HPPD variants and methods of use” (BASF Agricultural Solutions Seed US LLC, priority 2017, dated 2021)
Where a chain is given by its changes, count along the chain named.

B1: 15 (protein)
chain: MADLYENPMGLMGFEFIEFASPTPGTLEPIFEIMGFTKVATHRSKNVHLYRQGEINLILNNEPNSIASYFAAEHGPSVCGMAFRVKDSQKAYNRALELGAQPIHIDTGPMELNLPAIKGIGGAPLYLIDRFGEGSSIYDIDFVYLEGVERNPVGAGLKVIDHLTHNVYRGRMVYWANFYEKLFNFREARYFDIKGEYTGLTSKAMSAPDGMIRIPLNEESSKGAGQIEEFLMQFNGEGIQHVAFLTDDLVKTWDALKKIGMRFMTAPRDNYYEMLEGRLPDHGEPVDQLQARGILLDGSSVEGDKRLLLQIFSETLMGPVFFEFIQRKGDDGFGPDSFKVLFESVERDQVRRGVLTAD
modifications: mutant HPPD polypeptide
B2: 36 (protein)
chain: B1 chain with D336H
modifications: mutant HPPD polypeptide
B3: 18 (protein)
chain: B1 chain with R268P, N270E
modifications: mutant HPPD polypeptide
B4: 31 (protein)
chain: B1 chain with R268G, N270T, D336H
modifications: mutant HPPD polypeptide
B5: 19 (protein)
chain: B1 chain with N270E
modifications: mutant HPPD polypeptide
B6: 25 (protein)
chain: B1 chain with R268G, N270T, D336H, V345I
modifications: mutant HPPD polypeptide
B7: 37 (protein)
chain: B1 chain with R268S, D336H
modifications: mutant HPPD polypeptide
B8: 30 (protein)
chain: B1 chain with R268A, N270T, D336H
modifications: mutant HPPD polypeptide
B9: 26 (protein)
chain: B1 chain with R268P, N270T, D336H, V345I
modifications: mutant HPPD polypeptide
B10: 16 (protein)
chain: B1 chain with R268S
modifications: mutant HPPD polypeptide
B11: 24 (protein)
chain: B1 chain with R268A, N270T, D336H, V345I
modifications: mutant HPPD polypeptide
B12: 20 (protein)
chain: B1 chain with R268S, N270E
modifications: mutant HPPD polypeptide
B13: 38 (protein)
chain: B1 chain with R268A, N270E, D336H
modifications: mutant HPPD polypeptide
B14: 28 (protein)
chain: B1 chain with R268G, D336H, V345I
modifications: mutant HPPD polypeptide
B15: 17 (protein)
chain: B1 chain with R268A, N270E
modifications: mutant HPPD polypeptide
B16: 27 (protein)
chain: B1 chain with R268A, D336H, V345I
modifications: mutant HPPD polypeptide
B17: 23 (protein)
chain: B1 chain with R268P, N270T, S344Q
modifications: mutant HPPD polypeptide
B18: 22 (protein)
chain: B1 chain with R268G, N270T, S344Q
modifications: mutant HPPD polypeptide
B19: 39 (protein)
chain: B1 chain with R268G, N270E, D336H
modifications: mutant HPPD polypeptide
B20: 33 (protein)
chain: B1 chain with R268A, D336H
modifications: mutant HPPD polypeptide
B21: 34 (protein)
chain: B1 chain with R268G, D336H
modifications: mutant HPPD polypeptide
B22: 32 (protein)
chain: B1 chain with R268P, N270T, D336H
modifications: mutant HPPD polypeptide
B23: 35 (protein)
chain: B1 chain with R268P, D336H
modifications: mutant HPPD polypeptide
B24: 21 (protein)
chain: B1 chain with R268A, N270T, S344Q
modifications: mutant HPPD polypeptide
B25: 29 (protein)
chain: B1 chain with R268P, D336H, V345I
modifications: mutant HPPD polypeptide

Test system: HPPD polypeptides
Experiment: coupled HPPD activity assay: turnover and residual turnover in crude extracts
Type: biochemical, Pseudomonas fluorescens
Details: for Turnover: absence of Cmpd. 1, kinetic changes in absorbance (OD) at 320 nm, 30 min; for Turnover / Residual turnover: high substrate concentration; for Residual turnover: presence of 100 μM Cmpd. 1, changes in absorbance (OD) at 320 nm; for Residual turnover [%]: 100 μM Cmpd. 1, signal change with inhibitor divided by signal change without inhibitor

Molecule | Turnover | Residual turnover | Residual turnover [%]
B1 | 0.040 | 0.030 | 
B2 | 0.108 | 0.066 | 61%
B3 | 0.134 | 0.057 | 43%
B4 | 0.268 | 0.098 | 37%
B5 | 0.141 | 0.063 | 45%
B6 | 0.215 | 0.083 | 39%
B7 | 0.096 | 0.048 | 50%
B8 | 0.311 | 0.149 | 48%
B9 | 0.279 | 0.077 | 28%
B10 | 0.181 | 0.083 | 46%
B11 | 0.271 | 0.105 | 39%
B12 | 0.199 | 0.105 | 53%
B13 | 0.286 | 0.129 | 45%
B14 | 0.204 | 0.088 | 43%
B15 | 0.138 | 0.081 | 59%
B16 | 0.266 | 0.101 | 38%
B17 | 0.193 | 0.076 | 39%
B18 | 0.132 | 0.062 | 47%
B19 | 0.244 | 0.097 | 40%
B20 | 0.189 | 0.087 | 46%
B21 | 0.243 | 0.113 | 47%
B22 | 0.326 | 0.128 | 39%
B23 | 0.036 | 0.023 | 
B24 | 0.157 | 0.080 | 51%
B25 | 0.289 | 0.084 | 29%
